The numbers were not newly measured in PMC8945002, which cites them from elsewhere.

For orientation: Kd means the free concentration of one partner at which half of the binding sites on the other are occupied at equilibrium, for simple one-to-one binding.

This data set concerns the target BfrB (recombinant) (Pseudomonas aeruginosa) (UniProt Q9HY79). In words: SPR. In general terms: Surface plasmon resonance follows binding to a sensor surface in real time, without labels.

BfrB (recombinant) (Pseudomonas aeruginosa), sequence (Q9HY79 whole entry): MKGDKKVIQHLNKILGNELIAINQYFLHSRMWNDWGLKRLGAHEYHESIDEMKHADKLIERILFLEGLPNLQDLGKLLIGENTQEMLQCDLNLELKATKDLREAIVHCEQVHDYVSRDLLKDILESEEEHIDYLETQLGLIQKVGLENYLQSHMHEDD
Bfd, sequence (Q9HY80 whole entry): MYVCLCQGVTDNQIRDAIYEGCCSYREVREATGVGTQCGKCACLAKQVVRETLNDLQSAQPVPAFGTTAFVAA

As to Bfd (from UniProt Q9HY80), the Kd was 3.3 µM.
